Here are results for 3 proteins from publication PMC8764530, “Pseudomonas aeruginosa C-Terminal Processing Protease CtpA Assembles into a Hexameric Structure That Requires Activation by a Spiral-Shaped Lipoprotein-Binding Partner” (mBio, 2022).

First the molecules themselves.
B1: CtpA(ΔC6) (enzyme)
chain: SAPLPLDELRTFAEVLDRVKAAYVEPVDDKTLLENAIKGMLSNLDPHSAYLGPEDFAELQESTSGEFGGLGIEVGSEDGFIKVVSPIDDTPAARAGIQPGDLIVQIDGKPTKGQSMTEAVDSMRGKAGSPITLTIVRDGGRPFDVELKRAIIKVKSVKSQVLEPGYAYLRITQFQVNTGEEVVKALNQLRKDNKGRLKGLVLDLRNNPGGVLQSAVEVADAFLTKGLIVYTKGRIANSELRFSADPADPSDKVPLVVLINGGSASAAEIVAGALQDQKRAILMGTDSFGKGSVQTVLPLNNDRALKLTTALYYTPNGRSIQAQGIVPDIEVGRAKVTQERSSFEGFKEADLQGHLANGNGGADRPTGKRAAPSERPQDSDYQLSQALSLLKGL
notes: Pseudomonas aeruginosa CtpA, ΔN37 construct (from amino acid 38) with the last six residues Ser-431 to Asn-436 removed; also called CtpA(ΔC6) dimer; source: E. coli BL21(DE3), purified (HiTrap-Ni, thrombin, HiTrap-Q, Superdex 200); not shown: His6, N-terminal, cleaved
B2: CtpA-L426K L430K (enzyme)
chain: SAPLPLDELRTFAEVLDRVKAAYVEPVDDKTLLENAIKGMLSNLDPHSAYLGPEDFAELQESTSGEFGGLGIEVGSEDGFIKVVSPIDDTPAARAGIQPGDLIVQIDGKPTKGQSMTEAVDSMRGKAGSPITLTIVRDGGRPFDVELKRAIIKVKSVKSQVLEPGYAYLRITQFQVNTGEEVVKALNQLRKDNKGRLKGLVLDLRNNPGGVLQSAVEVADAFLTKGLIVYTKGRIANSELRFSADPADPSDKVPLVVLINGGSASAAEIVAGALQDQKRAILMGTDSFGKGSVQTVLPLNNDRALKLTTALYYTPNGRSIQAQGIVPDIEVGRAKVTQERSSFEGFKEADLQGHLANGNGGADRPTGKRAAPSERPQDSDYQLSQALSKLKGKSVTRGN
notes: Pseudomonas aeruginosa CtpA, ΔN37 construct (amino acid 38 to the C terminus, Asn-436) with L426K and L430K; also called LLKK; source: E. coli BL21(DE3), purified (HiTrap-Ni, thrombin, HiTrap-Q, Superdex 200); not shown: His6, N-terminal, cleaved
B3: CtpA-L426A L430A (enzyme)
chain: B2 chain with K389A, K393A
notes: Pseudomonas aeruginosa CtpA, ΔN37 construct (amino acid 38 to the C terminus, Asn-436) with L426A and L430A; also called LLAA; source: E. coli BL21(DE3), purified (HiTrap-Ni, thrombin, HiTrap-Q, Superdex 200); not shown: His6, N-terminal, cleaved

Changes are numbered by the printed parent chain. Numbers in names are those of the source.

This data set deals with the molecule itself. As to the kind of experiment: SEC; gel filtration of CtpA proteins, Superdex 200 prep-grade (16 × 600 mm), 10 mM Tris pH 8.0, 150 mM NaCl. A general note: Size exclusion chromatography separates by hydrodynamic size, large species first.
In the case of B1, the stoichiometry N (commonly the number of molecules, sites or subunits per partner or assembly) worked out at 2.
For B2, the “stoichiometry N” value is ~2.
As for B3, the “stoichiometry N” value is ~2.
